Three molecules from paper PMC3701624, “Three-Dimensional Structure of Human NLRP10/PYNOD Pyrin Domain Reveals a Homotypic Interaction Site Distinct from Its Mouse Homologue” (PLoS ONE, 2013) can be followed below.

Substrate in series [1]: Nc1ncnc2c1ncn2[C@@H]1O[C@H](COP(=O)(O)OP(=O)(O)OP(=O)(O)O)[C@@H](O)[C@H]1O
The series is described as follows: malachite green phosphate release, Lineweaver-Burk. Format: biochemical, Homo sapiens. The settings on record: 50 mM Tris-HCl pH 8.0, 10 mM MgCl2, 37°C, 3 µM protein, 0.1–3.2 mM nucleotide. The source says:
(§1) malachite green phosphate release, Lineweaver-Burk on MBP-huNLRP10 (huNLRP10, PYNOD)

Substrate in series [2]: Nc1nc2c(ncn2[C@@H]2O[C@H](COP(=O)(O)OP(=O)(O)OP(=O)(O)O)[C@@H](O)[C@H]2O)c(=O)[nH]1
Description: malachite green phosphate release, Lineweaver-Burk. Format: biochemical, Homo sapiens. The settings on record: 50 mM Tris-HCl pH 8.0, 10 mM MgCl2, 37°C, 3 µM protein, 0.1–3.2 mM nucleotide.
Source text: as §1

Substrate in series [3]: Nc1ncnc2c1ncn2[C@@H]1O[C@H](COP(=O)(O)OP(=O)(O)OP(=O)(O)O)[C@@H](O)[C@H]1O
The series is described as follows: malachite green phosphate release, Lineweaver-Burk. Format: biochemical, Homo sapiens. As to conditions: 50 mM Tris-HCl pH 8.0, 10 mM MgCl2, 37°C, 3 µM protein, 0.1–3.2 mM nucleotide. An excerpt: (§2) malachite green phosphate release, Lineweaver-Burk on MBP-huNLRP10ΔPYD (huNLRP10ΔPYD)
The source holds these as a separate data set.

Substrate in series [4]: Nc1nc2c(ncn2[C@@H]2O[C@H](COP(=O)(O)OP(=O)(O)OP(=O)(O)O)[C@@H](O)[C@H]2O)c(=O)[nH]1
Description: malachite green phosphate release, Lineweaver-Burk. As to conditions: 50 mM Tris-HCl pH 8.0, 10 mM MgCl2, 37°C, 3 µM protein, 0.1–3.2 mM nucleotide. Format: biochemical, Homo sapiens.
Source text: as §2
This is another data set of the same source.

The target of series [5] is T1, MBP-huNLRP10ΔPYD (Arg103-Ile655) (Homo sapiens (Human), UniProt Q86W26).
T1 chain: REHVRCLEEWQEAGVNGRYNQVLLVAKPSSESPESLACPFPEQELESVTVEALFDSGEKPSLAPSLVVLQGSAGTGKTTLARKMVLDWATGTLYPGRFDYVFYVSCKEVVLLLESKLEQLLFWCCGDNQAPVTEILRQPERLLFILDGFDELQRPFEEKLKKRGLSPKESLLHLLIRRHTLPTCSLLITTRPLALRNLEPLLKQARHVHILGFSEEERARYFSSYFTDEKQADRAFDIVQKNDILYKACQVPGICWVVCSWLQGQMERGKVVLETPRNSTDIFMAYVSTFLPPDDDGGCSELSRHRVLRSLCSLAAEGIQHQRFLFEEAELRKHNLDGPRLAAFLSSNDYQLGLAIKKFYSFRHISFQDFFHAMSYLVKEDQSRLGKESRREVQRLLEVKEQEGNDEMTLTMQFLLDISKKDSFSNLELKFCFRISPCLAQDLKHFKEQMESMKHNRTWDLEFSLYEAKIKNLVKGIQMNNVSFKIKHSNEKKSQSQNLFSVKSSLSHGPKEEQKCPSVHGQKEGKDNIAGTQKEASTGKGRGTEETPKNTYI
Description: size-exclusion chromatography and pull-down (data not shown).

B1: MBP-huNLRP10 (huNLRP10, PYNOD) (Homo sapiens) (protein)
chain: MAMAKARKPREALLWALSDLEENDFKKLKFYLRDMTLSEGQPPLARGELEGLIPVDLAELLISKYGEKEAVKVVLKGLKVMNLLELVDQLSHICLHDYREVYREHVRCLEEWQEAGVNGRYNQVLLVAKPSSESPESLACPFPEQELESVTVEALFDSGEKPSLAPSLVVLQGSAGTGKTTLARKMVLDWATGTLYPGRFDYVFYVSCKEVVLLLESKLEQLLFWCCGDNQAPVTEILRQPERLLFILDGFDELQRPFEEKLKKRGLSPKESLLHLLIRRHTLPTCSLLITTRPLALRNLEPLLKQARHVHILGFSEEERARYFSSYFTDEKQADRAFDIVQKNDILYKACQVPGICWVVCSWLQGQMERGKVVLETPRNSTDIFMAYVSTFLPPDDDGGCSELSRHRVLRSLCSLAAEGIQHQRFLFEEAELRKHNLDGPRLAAFLSSNDYQLGLAIKKFYSFRHISFQDFFHAMSYLVKEDQSRLGKESRREVQRLLEVKEQEGNDEMTLTMQFLLDISKKDSFSNLELKFCFRISPCLAQDLKHFKEQMESMKHNRTWDLEFSLYEAKIKNLVKGIQMNNVSFKIKHSNEKKSQSQNLFSVKSSLSHGPKEEQKCPSVHGQKEGKDNIAGTQKEASTGKGRGTEETPKNTYI
notes: full length (Met1-Ile655), N-terminal His6-MBP fusion (pETM41), tag kept; E. coli BL21(DE3)
As usually defined, the Km is the substrate concentration at which the rate is half of its maximum. Consider B1, for which the figures for the Michaelis-Menten constant (Km) in series [1] and in series [2] were 169.3 ± 7.3 µM and 295.6 ± 11.0 µM, respectively.

B2: MBP-huNLRP10ΔPYD (huNLRP10ΔPYD) (Homo sapiens) (protein)
chain: T1 chain
notes: NOD only, pyrin domain removed (Arg103-Ile655), N-terminal His6-MBP fusion (pETM41), tag kept; E. coli BL21(DE3)
Turning to B2, the Km worked out at 201.9 ± 1.9 µM in series [3] and 193.7 ± 17.1 µM in series [4].

B3: human NLRP10/PYNOD pyrin domain (residues 1-100) (protein)
chain: MAMAKARKPREALLWALSDLEENDFKKLKFYLRDMTLSEGQPPLARGELEGLIPVDLAELLISKYGEKEAVKVVLKGLKVMNLLELVDQLSHICLHDYRE
In the case of B3, the binding result in series [5] is “no binding”.
